Test results: article PMC12407373, “Kindlin Regulates Mechanosensitive Activation and Adhesion Assembly of Integrin beta6” (Advanced Science, 2025)
Where no end group is shown, it is not given here.

Target: T1, full-length mouse kindlin2 (mouse, UniProt Q8CIB5 1-680)
T1 construct: full-length mouse kindlin2, cloned into pET28a with 10xHis-SUMO tag and HRV-3C site at the N-terminal; also called kindlin2 protein; source: Escherichia coli Rosetta(DE3), purified (IMAC, tag cleavage by HRV 3C, SEC); not shown: 10xHis, N-terminal, cleaved; SUMO, N-terminal, cleaved
T1 sequence (looked up): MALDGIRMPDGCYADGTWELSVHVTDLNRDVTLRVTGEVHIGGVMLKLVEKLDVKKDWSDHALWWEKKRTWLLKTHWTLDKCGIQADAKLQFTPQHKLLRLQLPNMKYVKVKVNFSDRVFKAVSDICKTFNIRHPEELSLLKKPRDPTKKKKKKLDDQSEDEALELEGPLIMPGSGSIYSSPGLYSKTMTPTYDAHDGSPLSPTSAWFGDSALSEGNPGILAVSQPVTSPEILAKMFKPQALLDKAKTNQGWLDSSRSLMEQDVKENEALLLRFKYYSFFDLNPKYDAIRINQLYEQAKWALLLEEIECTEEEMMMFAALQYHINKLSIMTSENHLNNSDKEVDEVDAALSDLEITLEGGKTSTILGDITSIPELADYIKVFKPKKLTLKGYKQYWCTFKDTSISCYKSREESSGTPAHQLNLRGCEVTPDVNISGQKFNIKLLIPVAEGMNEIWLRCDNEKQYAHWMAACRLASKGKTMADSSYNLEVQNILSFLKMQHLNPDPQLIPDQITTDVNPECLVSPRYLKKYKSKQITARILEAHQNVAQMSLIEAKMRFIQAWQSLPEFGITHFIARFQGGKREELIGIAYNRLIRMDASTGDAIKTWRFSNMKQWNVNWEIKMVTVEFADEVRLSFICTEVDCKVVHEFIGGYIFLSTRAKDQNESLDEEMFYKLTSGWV
Test: MST; Monolith NT.115; FITC-labeled tail peptide constant at 10 µM, kindlin2 titrated 42.5 to 0.0013 µM; 20 mM Tris pH 7.5, 200 mM sodium chloride, 1 mM TCEP, 5% glycerol; 10-20% LED power; Kd model
Conditions: both partners purified

B1: FITC-labeled cytoplasmic tail of wildtype integrin β1 (peptide, UniProt P05556 752-798, looked up)
peptide: KLLMIIHDRREFAKFEKEKMNAKWDTGENPIYKSAVTTVVNPKYEGK
modifications: also: FITC label, position not given here
notes: cytoplasmic tail of integrin β1; also called cytoplasmic tail of integrin β1; integrin β tail peptide; source: synthetic peptide, synthesized by Sangon Biotech
B1 gave a Kd of 0.42 µM.

B2: FITC-labeled cytoplasmic tail of wildtype integrin β6 (peptide, UniProt P18564 731-788, looked up)
peptide: KLLVSFHDRKEVAKFEAERSKAKWQTGTNPLYRGSTSTFKNVTYKHREKQKVDLSTDC
modifications: also: FITC label, position not given here
notes: cytoplasmic tail of integrin β6; also called cytoplasmic tail of integrin β6; integrin β tail peptide; source: synthetic peptide, synthesized by Sangon Biotech
For B2, the Kd was 26.6 µM.
